# B1: R125–61 Fab (Fab, V domains shown)
# VH: QVQLQESGPGLVKPSETLSLICTVSGGSITRDFWSWVRQPPGKGLEWIGYGYYRGSTNYNPSLESRVTISVDTSKNQFSLKLTSVTAADTAVYYCARETAHNWIDTWGQGILVTVSS
# VL: DIVMTQSPESLALSLGERATINCKSSQTVSFTSNNKNYLAWYQQKPRQPPKLLFYWASTRHSGVPDRFSGSGSGTDFTLTINSLQAEDVAVYFCHQYFSTPWTFGQGTKVEI
# Biological target: T1, full-length SARS-CoV-2 spiketrimer (HP-GSAS-Mut7) (SARS-CoV-2, ancestral (Wuhan-Hu-1), stabilised)
# T1 construct: also called full-length spike trimer; full-length spike
# Assay: BLI
# Conditions: both partners purified
binder,measurement,value
B1,Kd,4.7 nM

# From paper PMC12768131, “Common cold embecovirus imprinting primes broadly neutralizing antibody responses to SARS-CoV-2 S2” (The Journal of experimental medicine, 2025)
